This is an account of results in patent publication US20200062827A1.

Assay [1] addresses therapeutic human IgG1 (Bristol-Myers Squibb) (human). The assay is described as follows: affinity precipitation: 5 mM C12-Z33 + 20 µM IgG1, 0.6 M Na2SO4, centrifugation, A280 of supernatant.
Assay [2] has the same target. The assay is described as follows: ITC, 15 C, PBS pH 7.4, reported per ligand. In general terms: ITC needs no label: the signal is the heat of the interaction.
For assay [3] the target is unchanged. The assay is described as follows: ITC, 15 C, PBS pH 7.4, reported per IgG1.

In the case of C12-Z33 immuno-amphiphile (peptide), the percent IgG1 removed from the supernatant in assay [1] is above 60%.

In assay [2], Z33 peptide registered a -TΔS° (kcal · mol^-1) of 13.6, a Kd of 60 nM, a ΔG° (kcal · mol^-1) of -9.5 and a ΔH° (kcal · mol^-1) of -23.1. In assay [3], this substance had a -TΔS° (kcal · mol^-1) of 43.4, a ΔG° (kcal · mol^-1) of -10 and a ΔH° (kcal · mol^-1) of -53.4.

What is called Kd is the free concentration of one partner at which half of the binding sites on the other are occupied at equilibrium, for simple one-to-one binding. The low end stands for higher affinity, the high end for lower affinity.
